{"source": "paper PMC5832332", "about": "(Nature, 2017)", "proteins": {"B1": {"name": "Enterococcus faecalis Cas2 (natural protein, UniProt A0A3N3FLR9 1-109, looked up)", "chain": "MSYRYMRLLLMFDMPTDTASDRKAYRKFRKFLINEGFIMHQFSVYSKILLNDTANKAMLARLKQNNPQRGLITLLNVTEKQFSRMIYLHGEQDNRVANSDERIVFLGEE"}}, "molecular_target": "the molecule itself", "assay": "crystal structure", "data": [{"protein": "B1", "values": [{"measurement": "stoichiometry N", "value": 2}]}]}
